The target of assay [1] is T1, biotinylated huPD-1 (human, UniProt Q15116 25-167, limits assumed, biotinylated (site not stated)).
T1 construct: also called human PD-1
Briefly: BLI (biosensor): biotinylated huPD-1 on streptavidin tips, fragment in solution. As to the method: (§1) Anti-human IgG Fc (AHC) or Streptavidin (SA) biosensor were equilibrated in assay buffer for 20 minutes. Fe-tagged mouse and cynomolgus PD-1 was diluted to 5 μg/mL and biotinylated huPD-1 article was diluted to 0.5 μg/mL in assay buffer (1×PBS, 1% BSA, 0.05% Tween20). […] PD-1 was loaded on tips for 180 s followed by a 180 s association phase with PD-1 and 180 s dissociation phase in assay buffer.

The target of assay [2] is T2, Fc-tagged cynomolgus PD-1 (cynomolgus, UniProt B0LAJ3 25-170).
T2 construct: Printed 'Fe-tagged', read as Fc-tagged; also called cyno PD-1; Fe-tagged cynomolgus PD-1 (so in the source)
T2 sequence (B0LAJ3 entry or part of it limits assumed): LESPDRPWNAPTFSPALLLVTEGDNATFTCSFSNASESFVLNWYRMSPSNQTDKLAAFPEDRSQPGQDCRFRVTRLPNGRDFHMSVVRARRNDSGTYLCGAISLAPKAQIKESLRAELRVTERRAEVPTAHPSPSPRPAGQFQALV
Put plainly: BLI (biosensor): Fc-tagged PD-1 on anti-human IgG Fc tips, fragment in solution. The protocol: as §1

Assay [3] addresses T3, Fc-tagged mouse PD-1 (mouse, UniProt Q02242 25-167, limits assumed).
T3 construct: Printed 'Fe-tagged', read as Fc-tagged; also called Fe-tagged mouse PD-1 (so in the source); not shown: Fc tag
T3 sequence (looked up): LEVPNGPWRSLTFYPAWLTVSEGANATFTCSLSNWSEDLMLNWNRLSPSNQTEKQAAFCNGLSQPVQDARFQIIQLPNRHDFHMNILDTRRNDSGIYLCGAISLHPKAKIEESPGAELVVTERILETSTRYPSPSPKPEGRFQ
The description is as above. The protocol:
as §1

In assay [4] the target is T4, mouse PD-1 (mouse, UniProt Q02242 25-167, limits assumed).
T4 sequence (looked up): T3 sequence (looked up)
Briefly: ELISA: plate-coated PD-1, detection by anti-kappa-HRP. For orientation: ELISA stands for enzyme-linked immunosorbent assay.

For assay [5], the target named is T5, human PD-1 (human, UniProt Q15116 25-167, limits assumed).
T5 construct: also called huPD-1
T5 sequence (Q15116 25-167 limits assumed): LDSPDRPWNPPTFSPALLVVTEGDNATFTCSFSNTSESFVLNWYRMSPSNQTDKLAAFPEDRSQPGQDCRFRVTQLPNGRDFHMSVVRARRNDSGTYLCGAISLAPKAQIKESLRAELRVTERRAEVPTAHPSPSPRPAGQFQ
The assay is described as above.

Assay [6] concerns the target T6, cynomolgus PD-1 (cynomolgus, UniProt B0LAJ3 25-170).
T6 construct: also called cyno PD-1
Described as above.

T6 sequence (B0LAJ3 entry or part of it limits assumed): as the sequence (B0LAJ3 entry or part of it limits assumed) above
T1 sequence (Q15116 25-167 limits assumed): as the sequence (Q15116 25-167 limits assumed) above

B1: Fab moiety of the PD1AB53 (Fab, V domains shown)
VH: EVQLLESGGGLVQPGGSLRLSCAASGFTFSSYDMSWVRQAPGKGLEWVSGITISGGSTYYADSVKGRFTISRDNSKNTLYLQMNSLRAEDTAVYYCARGRGGSGWLDYWGQGTTVTVSS
VL: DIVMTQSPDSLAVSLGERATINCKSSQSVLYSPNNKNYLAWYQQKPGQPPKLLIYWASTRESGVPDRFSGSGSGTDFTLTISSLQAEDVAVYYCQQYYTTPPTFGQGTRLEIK
notes: also called PD1AB53 Fab
In general, Kd refers to the concentration at which binding is half-saturated. Higher therefore signals weaker binding. For B1, the Kd in assay [1] stood at 0.0326 µM; in assay [2] it was 0.0303 µM. For the same molecule, the binding result in assay [3] was “no binding (tested: PD1AB53 Fab: dilution series from 500 nM)”.

B2: PD1AB69 (bispecific antibody, human IgG1, kappa)
heavy: EVQLLESGGGLVQPGGSLRLSCAASGFTFSSYDMSWVRQAPGKGLEWVSGITISGGSTYYADSVKGRFTISRDNSKNTLYLQMNSLRAEDTAVYYCARGRGGSGWLDYWGQGTTVTVSSASTKGPSVFPLAPSSKSTSGGTAALGCLVKDYFPEPVTVSWNSGALTSGVHTFPAVLQSSGLYSLSSVVTVPSSSLGTQTYICNVNHKPSNTKVDKKVEPKSCDKTHTCPPCPAPEAAGAPSVFLFPPKPKDTLMISRTPEVTCVVVDVSHEDPEVKFNWYVDGVEVHNAKTKPREEQYNSTYRVVSVLTVLHQDWLNGKEYKCKVSNKALPAPIEKTISKAKGQPREPQVYTLPPSREEMTKNQVSLTCLVKGFYPSDIAVEWESNGQPENNYKTTPPVLDSDGSFFLYSKLTVDKSRWQQGNVFSCSVMHEALHNHYTQKSLSLSPGGGGSEGGGSEGGGSEDIQMTQSPSSLSASVGDRVTITCQASRDILNYLAWYQQKPGKAPKLLIYAASSLQSGVPSRFSGSGSGTDFTLTISSLQPEDFATYYCQQSYSTPPTFGCGTKVDIKGGGGSGGGGSGGGGSGGGGSEVQLVQSGAEVKKPGASVKVSCKASGYSFTTYYMHWVRQAPGQCLEWMGIINPSGGSTSYAQKFQGRVTMTRDTSTSTVYMELSSLRSEDTAVYYCASGWVYWGQGTLVTVSS
light: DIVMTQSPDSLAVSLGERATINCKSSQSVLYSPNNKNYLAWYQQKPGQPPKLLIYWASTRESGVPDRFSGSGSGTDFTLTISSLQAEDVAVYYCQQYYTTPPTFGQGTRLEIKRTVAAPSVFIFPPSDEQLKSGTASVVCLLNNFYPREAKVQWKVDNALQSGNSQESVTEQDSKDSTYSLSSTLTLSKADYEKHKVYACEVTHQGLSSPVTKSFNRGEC
As to B2, the binding result in assay [4], in assay [5] and in assay [6] was “binds” in each case.

These data come from patent US20240052034A1 (PANDION OPERATIONS, published 2024).
